The values that follow come from US20250382386A1 (KINTOR PHARMACEUTICAL GUANGDONG, published 2025).

Changes are numbered by the printed parent chain. Where two headings read alike, the source gives them in different places.

Assay [1] concerns the target T1, human ALK-1 on cells (CHO-K1-hALK-1 cells; HUVEC; A172) (human, UniProt P37023 22-503).
T1 construct: whole, on cells; One entry is used for ALK-1 on the transfected CHO-K1 line and on HUVEC/A172 cells; also called CHO-K1-ALK-1 cells; CHO-K1-ALK1 cells
Nature of the assay: flow cytometry on CHO-K1-hALK-1 cells, MFI. On the technique in general: Flow cytometry measures light scatter and fluorescence of single cells or particles in a stream.

Assay [2] concerns the target T1, human ALK-1 on cells (CHO-K1-hALK-1 …). Nature of the assay: cell-based or functional assay.
Assay [3] has the same target. In words: cell-based or functional assay. This is another data set of the same source.
For assay [4] the target is unchanged. Nature of the assay: cell-based or functional assay. This is another data set of the same source.
Assay [5] has the same target. In words: cell-based or functional assay. The source holds these as a separate data set.
For assay [6] the target is unchanged. Nature of the assay: cell-based or functional assay. This is another data set of the same source.
The target is the same in assay [7]. Nature of the assay: flow cytometry on CHO-K1-hALK-1 cells ('Binding affinity to CHO-ALK1'), MFI; method as for FIG. 3.
Assay [8] shares this target. In words: flow cytometry on CHO-K1-hALK-1 cells, MFI; VEGF 165-biotin and APC-anti-human IgG mAb added after the antibody.
Assay [9] has the same target. In words: flow cytometry on CHO-K1-ALK-1 cells, MFI; detection with human PD-1-PE and PE anti-human IgG Fc antibody 'respectively'.

B1: Bevacizumab (antibody, V domains shown)
VH: EVQLVESGGGLVQPGGSLRLSCAASGYTFTNYGMNWVRQAPGKGLEWVGWINTYTGEPTYAADFKRRFTFSLDTSKSTAYLQMNSLRAEDTAVYYCAKYPHYYGSSHWYFDVWGQGTLVTVSS
VL: DIQMTQSPSSLSASVGDRVTITCSASQDISNYLNWYQQKPGKAPKVLIYFTSSLHSGVPSRFSGSGSGTDFTLTISSLQPEDFATYYCQQYSTVPWTFGQGTKVEIK
notes: Bought control antibody (Biointron, B7424); also called Avastin; VEGF-A monoclonal antibody (Bevacizumab)
As to B1, in [1], the binding result is “no binding (tested: about 50 nM)”.

B2: anti-ALK-1 antibody #1 (antibody, human IgG1, kappa, L234A L235A, V domains shown)
VH: QVQLQESGPGLVKPSQTLSLTCTVSGGSISSGEYYWNWIRQHPGKGLEWIGYIYYSGSTYYNPSLKSRVTISVDTSKNQFSLKLSSVTAADTAVYYCARESVAGFDYWGQGTLVTVSS
VL: EIVLTQSPGTLSLSPGERATLSCRASQSVSSSYLAWYQQKPGQAPRLLIYGTSSRATGIPDRFSGSGSGTDFTLTISRLEPEDFAVYYCQGYGSFPITFGQGTRLEIKR
For B2, in assay [2], the “IC50 of blocking BMP9-induced Smad1 phosphorylation in HUVEC cells (ELISA kit)” value (shortened to “IC50 … (ELISA kit)”) was 5.8 nM.

B3: anti-ALK-1 antibody #12 (antibody, human IgG1, kappa, L234A L235A, V domains shown)
VH: B2 VH
VL: B2 VL with G91I, F95I
With B3, in assay [2], the “IC50 … (ELISA kit)” value was 11.2 nM.

B4: anti-ALK-1 antibody #27 (antibody, human IgG1, kappa, L234A L235A, V domains shown)
VH: B2 VH
VL: B2 VL with F95W
As to B4, the “IC50 … (ELISA kit)” value in assay [2] was 6.3 nM.

B5: anti-ALK-1 antibody #18 (antibody, human IgG1, kappa, L234A L235A, V domains shown)
VH: B2 VH
VL: B2 VL with G91A, F95W
notes: the rest as BM; also called #18 mutant; ALK-1 mAb (#18 mutant)
As usually defined, the EC50 is the concentration that produces a half-maximal response. High values mean weaker potency, low ones greater potency. As for B5, the “IC50 … (ELISA kit)” value in assay [2] came out at 8.2 nM. Also, in [3], the “IC50; blocking of BMP9-induced Smad1 phosphorylation, pSmad1 ELISA assay in A172 cell line (right panel), OD 450” value came to 2.39 nM. Further, the “IC50; blocking of BMP9-induced Smad1 phosphorylation, pSmad1 ELISA assay in HUVEC (left panel), OD 450” value in [3] turned out to be 26.3 nM. The “IC50; blocking of BMP9-induced Smad1 phosphorylation, pSmad1 ELISA assay in HUVEC, OD450” value in assay [4] was found to be 20.9 nM; in [5], 26.3 nM. In addition, the “IC50; blocking of BMP9-induced Smad1 phosphorylation, pSmad1 ELISA assay in A172 cell line, OD 450” value in assay [6] turned out to be 2.39 nM. For the same molecule, the concentration for a half-maximal effect (EC50) in assay [7] is 0.447 nM; in [8] it was 1.85 nM; in [9] it was 1.85 nM.

B6: anti-ALK-1 antibody #19 (antibody, human IgG1, kappa, L234A L235A, V domains shown)
VH: B2 VH
VL: B2 VL with G91F, F95W
Regarding B6, the “IC50 … (ELISA kit)” value in [2] turned out to be 5.2 nM.

B7: anti-ALK-1 antibody #9 (antibody, human IgG1, kappa, L234A L235A, V domains shown)
VH: B2 VH
VL: B2 VL with G91I, F95W
In the case of B7, in [2], the “IC50 … (ELISA kit)” value stood at 11.6 nM.

B8: anti-ALK-1 antibody #14 (antibody, human IgG1, kappa, L234A L235A, V domains shown)
VH: B2 VH
VL: B2 VL with G91M, F95W
As for B8, the “IC50 … (ELISA kit)” value in assay [2] amounted to 11.1 nM.

B9: anti-ALK-1 antibody #26 (antibody, human IgG1, kappa, L234A L235A, V domains shown)
VH: B2 VH
VL: B2 VL with G91V, F95V
Take B9: the “IC50 … (ELISA kit)” value in [2] is 12.4 nM.

B10: anti-ALK-1 antibody #3 (antibody, human IgG1, kappa, L234A L235A, V domains shown)
VH: B2 VH
VL: B2 VL with G91L
On to B10, for which the “IC50 … (ELISA kit)” value in assay [2] came out at 5.3 nM.

B11: anti-ALK-1 antibody #25 (antibody, human IgG1, kappa, L234A L235A, V domains shown)
VH: B2 VH
VL: B2 VL with G91V, F95W
Consider B11, for which the “IC50 … (ELISA kit)” value in assay [2] worked out at 9.1 nM.

B12: anti-ALK-1 antibody #28 (antibody, human IgG1, kappa, L234A L235A, V domains shown)
VH: B2 VH
VL: B2 VL with G91I, F95V
B12: the “IC50 … (ELISA kit)” value in assay [2] came to 6.9 nM.
